According to paper PMC6987225, “Eukaryotic transcription factors can track and control their target genes using DNA antennas”:

Columns and labels:
Conditions in all cases: protein: recombinant; tags: C-terminal Cys added, labeled with Alexa 488 C5-maleimide; blunt
[1] = molecular target: T1, EngHD (Engrailed homeodomain, DNA-binding domain) (Drosophila melanogaster, UniProt P02836 454-513); assay: FCS; affinity unchanged vs N8; FCS, ~1 nM Alexa 488-EngHD with unlabeled dsDNA titrated; ionic strength 50 mM (NaCl) unless stated; buffer, pH and temperature not in the material
T1 sequence: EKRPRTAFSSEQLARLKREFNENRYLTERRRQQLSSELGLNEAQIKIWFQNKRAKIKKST

[2] = molecular target: T1, EngHD (Engrailed homeodomain, …); assay: FCS; 50 mM ionic strength; FCS, ~1 nM Alexa 488-EngHD with unlabeled dsDNA titrated; ionic strength 50 mM (NaCl) unless stated; buffer, pH and temperature not in the material
[3] = molecular target: T1, EngHD (Engrailed homeodomain, …); assay: as above; remark: listed apart in the source
[4] = molecular target: T1, EngHD (Engrailed homeodomain, …); assay: as above; remark: listed apart in the source
[5] = molecular target: T1, EngHD (Engrailed homeodomain, …); assay: as above; remark: listed apart in the source
[6] = molecular target: T1, EngHD (Engrailed homeodomain, …); assay: as above; remark: listed apart in the source
[7] = molecular target: T1, EngHD (Engrailed homeodomain, …); assay: as above; remark: listed apart in the source
[8] = molecular target: T1, EngHD (Engrailed homeodomain, …); assay: FCS; minimal difference from N7; FCS, ~1 nM Alexa 488-EngHD with unlabeled dsDNA titrated; ionic strength 50 mM (NaCl) unless stated; buffer, pH and temperature not in the material

B1: 150 bp TAATTG shuffled (m7) (dsDNA)
DNA 1: TACTCATCGATACTCAGTACTCGCGACGCATCGTGTACGCGCGACATACATCTCACTGATACGCGATCACTCTATAATTGCACTCTATCTGTGCATCGCTCTATAGCTCTATCTGCAGTACACTGATATGACAGACAGTATGCTCACATA
DNA 2: TATGTGAGCATACTGTCTGTCATATCAGTGTACTGCAGATAGAGCTATAGAGCGATGCACAGATAGAGTGCAATTATAGAGTGATCGCGTATCAGTGAGATGTATGTCGCGCGTACACGATGCGTCGCGAGTACTGAGTATCGATGAGTA
- binding result [1]: binds

B2: 38 bp TAATTG (dsDNA)
DNA 1: AAAAGCCATCAATCTATAATTGCAATCTAACTGTGCCT
DNA 2: AGGCACAGTTAGATTGCAATTATAGATTGATGGCTTTT
- Kd [2]: 7.26 -log10 M

B3: 75 bp TAATTG high G/C (m3) (dsDNA)
DNA 1: CCCCCTCCCACCCCTCCACCCCCTCCCCTCCCCCCCTAATTGCCCTCCCCTCCCCCACCCCCTCCCCCACCCCCT
DNA 2: AGGGGGTGGGGGAGGGGGTGGGGGAGGGGAGGGCAATTAGGGGGGGAGGGGAGGGGGTGGAGGGGTGGGAGGGGG
- Kd [3]: ~700 nM

B4: 150 bp TAATTG half original/half shuffled (m8) (dsDNA)
DNA 1: TACTCATCGATACTCAGTACTCGCGACGCATCGTGTACGCCCGAAATAAATCTGGCCGAAAAGCCATCAATCTATAATTGCAATCTAACTGTGCCTCGGTTTATACCTCCAACTGCAGTACACTGATATGACAGACAGTATGCTCACATA
DNA 2: TATGTGAGCATACTGTCTGTCATATCAGTGTACTGCAGTTGGAGGTATAAACCGAGGCACAGTTAGATTGCAATTATAGATTGATGGCTTTTCGGCCAGATTTATTTCGGGCGTACACGATGCGTCGCGAGTACTGAGTATCGATGAGTA
- binding result [1]: binds

B5: 150 bp TAATTG (m6) (dsDNA)
DNA 1: TTCTTAACCAAATTGAATTCTCGCCACCGATCGTGTTCGCCCGAAATAAATCTGGCCGAAAAGCCATCAATCTATAATTGCAATCTAACTGTGCCTCGGTTTATACCTCCAACTGCCGTTCACCGAAAAGGCCGACAGTTTTCCGACAAA
DNA 2: TTTGTCGGAAAACTGTCGGCCTTTTCGGTGAACGGCAGTTGGAGGTATAAACCGAGGCACAGTTAGATTGCAATTATAGATTGATGGCTTTTCGGCCAGATTTATTTCGGGCGAACACGATCGGTGGCGAGAATTCAATTTGGTTAAGAA
- binding signal [4]: ~2 fold higher affinity than 75 bp TAATTG (N2)

B6: 75 bp TAATTG (m2) (dsDNA)
DNA 1: GCCCGAAATAAATCTGGCCGAAAAGCCATCAATCTATAATTGCAATCTAACTGTGCCTCGGTTTATACCTCCAAC
DNA 2: GTTGGAGGTATAAACCGAGGCACAGTTAGATTGCAATTATAGATTGATGGCTTTTCGGCCAGATTTATTTCGGGC
- Kd [5]: 7.44 -log10 M

B7: 75 bp TAATTA (m1) (dsDNA)
DNA 1: GCCCGAAATAAATCTGGCCGAAAAGCCATCAATCTATAATTACAATCTAACTGTGCCTCGGTTTATACCTCCAAC
DNA 2: GTTGGAGGTATAAACCGAGGCACAGTTAGATTGTAATTATAGATTGATGGCTTTTCGGCCAGATTTATTTCGGGC
- Kd [6]: 8.43 -log10 M

B8: 75 bp GAATTG (dsDNA)
DNA 1: GCCCGAAATAAATCTGGCCGAAAAGCCATCAATCTAGAATTGCAATCTAACTGTGCCTCGGTTTATACCTCCAAC
DNA 2: GTTGGAGGTATAAACCGAGGCACAGTTAGATTGCAATTCTAGATTGATGGCTTTTCGGCCAGATTTATTTCGGGC
- binding signal [7]: 19 fold lower affinity than TAATTA (N3)

B9: 75 bp TATATA (dsDNA)
DNA 1: GCCCGAAATAAATCTGGCCGAAAAGCCATCAATCTATATATACAATCTAACTGTGCCTCGGTTTATACCTCCAAC
DNA 2: GTTGGAGGTATAAACCGAGGCACAGTTAGATTGTATATATAGATTGATGGCTTTTCGGCCAGATTTATTTCGGGC
- binding signal [7]: ~10 fold lower affinity than TAATTA (N3)

B10: 75 bp CGTGTT (m4) (dsDNA)
DNA 1: GCCCGAAATAAATCTGGCCGAAAAGCCATCAATCTACGTGTTCAATCTAACTGTGCCTCGGTTTATACCTCCAAC
DNA 2: GTTGGAGGTATAAACCGAGGCACAGTTAGATTGAACACGTAGATTGATGGCTTTTCGGCCAGATTTATTTCGGGC
- binding signal [7]: 22 fold lower affinity than TAATTA (N3)

B11: 75 bp TAATTT (dsDNA)
DNA 1: GCCCGAAATAAATCTGGCCGAAAAGCCATCAATCTATAATTTCAATCTAACTGTGCCTCGGTTTATACCTCCAAC
DNA 2: GTTGGAGGTATAAACCGAGGCACAGTTAGATTGAAATTATAGATTGATGGCTTTTCGGCCAGATTTATTTCGGGC
- Kd [5]: 7.79 -log10 M

B12: 75 bp CGTGTT shuffled (m5) (dsDNA)
DNA 1: GCTCGACATAGATCTGACTGACATGCTATCAGTCTACGTGTTCAGTCTAGCTGTGCATCGATCTATACATCTAGC
DNA 2: GCTAGATGTATAGATCGATGCACAGCTAGACTGAACACGTAGACTGATAGCATGTCAGTCAGATCTATGTCGAGC
- binding result [8]: binds
